Eight molecules from paper PMC8778164, “Towards Complete Tumor Resection: Novel Dual-Modality Probes for Improved Image-Guided Surgery of GRPR-Expressing Prostate Cancer” (Pharmaceutics, 2022) can be followed below.

Each structure is given as a SMILES string.

One data set concerns the target T1, GRPR (Homo sapiens, UniProt P30550).
T1 construct: host or cells: PC-3 cells (human prostate adenocarcinoma)
Nature of the data set: Competition binding assay against [111In]In-NeoB on PC-3 cells. The note with it: IC50 of compound over IC50 of NeoB. As to the method:
GRPR-positive human-derived prostate adenocarcinoma epithelial PC-3 cells (ATCC, Manassas, VA, USA) were cultured in Ham’s F-12K (Kaighn’s) Medium (Gibco, Paisley, UK) supplemented with 10% fetal bovine serum, penicillin (100 units/mL) and streptomycin (100 µg/mL). Cells were routinely passaged and grown in tissue culture flasks at 37 °C in a humidified atmosphere with 5% CO2.
The affinity of all six probes for GRPR was determined using a competition binding assay. PC-3 cells were seeded in 12-well plates (2.5 × 10^5 cells/well) one day prior to the experiment. The next day, cells were washed with warm Dulbecco’s phosphate-buffered saline (PBS) (Gibco). Subsequently, cells were incubated for 1 h at 37 °C with 0.5 mL incubation medium (Ham’s F-12K, 20 mM HEPES, 1% BSA, pH 7.4) containing 10^−9 M [^111In]In-NeoB, in the presence or absence of increasing concentrations (10^−12 to 10^−6 M) of one of the six unlabeled probes or NeoB (positive control). After incubation, the medium was removed and cells were washed twice with cold PBS. To determine the amount of activity that was taken up by the cells, cells were lysed using 1 M NaOH for > 20 min at rt, then collected and measured in a γ-counter. To determine the amount of radioactivity added per well, samples of the incubation medium containing 10^−9 M [^111In]In-NeoB were also measured. The results are expressed as the percentage of added dose (%AD) and were normalized to the uptake of [^111In]In-NeoB (in the absence of cold compound). Data represent the mean ± standard deviation (SD) of triplicate wells.
Statistical analysis was performed using GraphPad Prism version 5.01 (GraphPad Software Inc., San Diego, CA, USA). The half-maximal inhibitory concentration (IC50) values were estimated by the log (inhibitor) vs. the normalized response fitting routine. To compare the uptake values of the two probes studied in vivo, an unpaired t-test was used with the significance levels set at 5%. The results are represented as mean ± standard deviation (SD).

Data set [1] is described as follows: Stability in mouse serum at 37 °C (iTLC). In kind it is in vitro ADME. The following applies: for Stability in Mouse Serum (%) 30 min / Stability in Mouse Serum (%) 1 h / Stability in Mouse Serum (%) 2 h / Stability in Mouse Serum (%) 4 h: intact labeled ligand after incubation at 37 °C in mouse serum, n = 1. As to the method:
(§1) Stability in PBS was determined by incubating 20 µL of the labeled compounds (∼11 MBq) in PBS (80 µL) at 37 °C. Radiochemical purity was determined by iTLC at 30 min, 1 h, 2 h and 4 h. Stability in the serum was carried out by adding 70 µL of the labeled compound (∼35 MBq) to 330 µL of mouse serum (Merck, Haarlerbergweg, The Netherlands). The mixture was incubated at 37 °C. At different time points (30 min, 1 h, 2 h and 4 h), an aliquot of the mixture (50 µL) was added to 50 µL ACN. The vial was vortexed and centrifuged at 10,000 rpm for 20 min and the supernatant was analyzed by iTLC.

A short description of data set [2]: Stability in PBS at 37 °C (iTLC). The note with it: intact labeled ligand after incubation at 37 °C in PBS, n = 1. In kind it is physicochemical. As to the method:
as §1

Data set [3] is described as follows: Distribution coefficient (LogD7.4), shake-flask method. The following applies: n-octanol/PBS pH 7.4, n = 3; read-out: Log D7.4. It counts as physicochemical. The method, then:
Distribution coefficients (LogD7.4) for the ^111In-labeled compounds were determined by a shake-flask method. The experiments were performed in triplicate for each radioligand. A sample containing the radioligand (0.5–2.0 MBq) was dissolved in 1 mL solution of phosphate-buffered saline (0.01 M, pH 7.4) and n-octanol (v:v = 1:1). The vials were vortexed vigorously and then centrifuged at 10,000 rpm for 3 min, for phase separation. Samples (10 μL) of each phase were taken out and analyzed using a gamma counter. LogD7.4 values were calculated, using the following equation: LogD7.4 = log {(counts in n-octanol phase)/(counts in PBS phase)}.

T1 sequence (P30550 whole entry): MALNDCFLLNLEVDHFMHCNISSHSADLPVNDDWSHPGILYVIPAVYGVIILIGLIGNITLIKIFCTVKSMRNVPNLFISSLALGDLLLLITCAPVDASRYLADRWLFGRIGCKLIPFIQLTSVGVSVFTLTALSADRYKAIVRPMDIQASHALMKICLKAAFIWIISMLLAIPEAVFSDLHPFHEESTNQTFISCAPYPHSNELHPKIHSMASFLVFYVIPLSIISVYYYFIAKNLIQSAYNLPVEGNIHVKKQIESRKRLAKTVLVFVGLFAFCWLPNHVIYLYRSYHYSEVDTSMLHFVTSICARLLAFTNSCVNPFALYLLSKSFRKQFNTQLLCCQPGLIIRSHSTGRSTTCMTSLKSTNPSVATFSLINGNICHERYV

With `CC(C)CC(CC(C)C)NC(=O)[C@H](Cc1c[nH]cn1)NC(=O)CNC(=O)[C@@H](NC(=O)[C@H](C)NC(=O)[C@H](Cc1c[nH]c2ccccc12)NC(=O)[C@H](CCC(N)=O)NC(=O)[C@@H](Cc1ccccc1)NC(=O)COCC(=O)Nc1ccc(CNC(=O)[C@H](CCCCNC(=O)OC2CCCC3C=NN=C(c4ccc(CNC(=O)CCCCC[N+]5=C(/C=C/C=C/C=C6N(C)c7ccc(S(=O)(=O)O)cc7C6(C)C)C(C)(C)c6cc(S(=O)(=O)[O-])ccc65)cc4)C3CC2)NC(=O)CN2CCN(CC(=O)O)CCN(CC(=O)O)CCN(CC(=O)O)CC2)cc1)C(C)C` (some centres unmarked) [Compound 14], at GRPR, the “Ratio Compound/NeoB (IC50)” value stood at 24.6.

As for `CC(C)CC(CC(C)C)NC(=O)[C@H](Cc1c[nH]cn1)NC(=O)CNC(=O)[C@@H](NC(=O)[C@H](C)NC(=O)[C@H](Cc1c[nH]c2ccccc12)NC(=O)[C@H](CCC(N)=O)NC(=O)[C@@H](Cc1ccccc1)NC(=O)CCOCCOCCOCCOCCNC(=O)[C@H](CCCCNC(=O)CCOCCOCCOCCOCCNC(=O)OC1CCCC2C=NN=C(c3ccc(CNC(=O)CCCCC[N+]4=C(/C=C/C=C/C=C5N(C)c6ccc(S(=O)(=O)O)cc6C5(C)C)C(C)(C)c5cc(S(=O)(=O)[O-])ccc54)cc3)C2CC1)NC(=O)CN1CCN(CC(=O)O)CCN(CC(=O)O)CCN(CC(=O)O)CC1)C(C)C` (some centres unmarked) [[^111In]In-13, metal not drawn], in data set [1], the “Stability in Mouse Serum (%) 30 min” value is reported as 98.1%, the “Stability in Mouse Serum (%) 1 h” value is given as 97.9% and the “Stability in Mouse Serum (%) 2 h” value was 97.6%. Besides, the “Stability in Mouse Serum (%) 4 h” value in data set [1] (4 h) was 97.3%. The “Protein-Bound Fraction at 4 h (%)” value in data set [1] (mouse serum, 4 h) is reported as 5.6%. In data set [2], the “Stability in PBS (%) 30 min” value amounted to 87.4%, the “Stability in PBS (%) 1 h” value was 87.5%, the “Stability in PBS (%) 2 h” value turned out to be 86.2% and the “Stability in PBS (%) 4 h” value stood at 84.4%. Further, the logD in data set [3] is -1.8 ± 0.01.

Take `CC(C)CC(CC(C)C)NC(=O)[C@H](Cc1c[nH]cn1)NC(=O)CNC(=O)[C@@H](NC(=O)[C@H](C)NC(=O)[C@H](Cc1c[nH]c2ccccc12)NC(=O)[C@H](CCC(N)=O)NC(=O)[C@@H](Cc1ccccc1)NC(=O)COCC(=O)Nc1ccc(CNC(=O)[C@H](CCCCNC(=O)CCOCCOCCOCCOCCNC(=O)OC2CCCC3C=NN=C(c4ccc(CNC(=O)CCCCC[N+]5=C(/C=C/C=C/C=C6N(C)c7ccc(S(=O)(=O)O)cc7C6(C)C)C(C)(C)c6cc(S(=O)(=O)[O-])ccc65)cc4)C3CC2)NC(=O)CN2CCN(CC(=O)O)CCN(CC(=O)O)CCN(CC(=O)O)CC2)cc1)C(C)C` (some centres unmarked) [Compound 12]: at GRPR, the “Ratio Compound/NeoB (IC50)” value is on record as 9.1.

In the case of `CC(C)CC(CC(C)C)NC(=O)[C@H](Cc1c[nH]cn1)NC(=O)CNC(=O)[C@@H](NC(=O)[C@H](C)NC(=O)[C@H](Cc1c[nH]c2ccccc12)NC(=O)[C@H](CCC(N)=O)NC(=O)[C@@H](Cc1ccccc1)NC(=O)COCC(=O)Nc1ccc(CNC(=O)OC2CCCC3C=NN=C(c4ccc(CNC(=O)CCCCC[N+]5=C(/C=C/C=C/C=C6N(C)c7ccc(S(=O)(=O)O)cc7C6(C)C)C(C)(C)c6cc(S(=O)(=O)[O-])ccc65)cc4)C3CC2)cc1)C(C)C` (some centres unmarked) [Compound 10], the “Ratio Compound/NeoB (IC50)” value at GRPR is 12.9.

Consider `CC(C)CC(CC(C)C)NC(=O)[C@H](Cc1c[nH]cn1)NC(=O)CNC(=O)[C@@H](NC(=O)[C@H](C)NC(=O)[C@H](Cc1c[nH]c2ccccc12)NC(=O)[C@H](CCC(N)=O)NC(=O)[C@@H](Cc1ccccc1)NC(=O)CCOCCOCCOCCOCCNC(=O)[C@H](CCCCNC(=O)CCOCCOCCOCCOCCNC(=O)OC1CCCC2C=NN=C(c3ccc(CNC(=O)CCCCC[N+]4=C(/C=C/C=C/C=C5N(C)c6ccc(S(=O)(=O)O)cc6C5(C)C)C(C)(C)c5cc(S(=O)(=O)[O-])ccc54)cc3)C2CC1)NC(=O)CN1CCN(CC(=O)O)CCN(CC(=O)O)CCN(CC(=O)O)CC1)C(C)C` (some centres unmarked) [Compound 13], for which the “Ratio Compound/NeoB (IC50)” value at GRPR was 18.2.

As for `CC(C)CC(CC(C)C)NC(=O)[C@H](Cc1c[nH]cn1)NC(=O)CNC(=O)[C@@H](NC(=O)[C@H](C)NC(=O)[C@H](Cc1c[nH]c2ccccc12)NC(=O)[C@H](CCC(N)=O)NC(=O)[C@@H](Cc1ccccc1)NC(=O)COCC(=O)Nc1ccc(CNC(=O)[C@H](CCCCNC(=O)OC2CCCC3C=NN=C(c4ccc(CNC(=O)CCCCC[N+]5=C(/C=C/C=C/C=C6N(C)c7ccc(S(=O)(=O)O)cc7C6(C)C)C(C)(C)c6cc(S(=O)(=O)[O-])ccc65)cc4)C3CC2)NC(=O)CN2CCN(CC(=O)O)CCN(CC(=O)O)CCN(CC(=O)O)CC2)cc1)C(C)C` (some centres unmarked) [[^111In]In-14, metal not drawn], in data set [1], the “Stability in Mouse Serum (%) 30 min” value came to 94.6%, the “Stability in Mouse Serum (%) 1 h” value is 94.1% and the “Stability in Mouse Serum (%) 2 h” value is given as 94.0%. Further, the “Stability in Mouse Serum (%) 4 h” value in data set [1] (4 h) was found to be 94.1%. Also, in data set [1] (mouse serum, 4 h, read-out: Protein-Bound Fraction at 4 h (%) (converted)), the fraction unbound at 4 h was 0.929. Besides, in data set [2], the “Stability in PBS (%) 30 min” value amounted to 74.2%, the “Stability in PBS (%) 1 h” value came out at 48.5%, the “Stability in PBS (%) 2 h” value is recorded as 30.9% and the “Stability in PBS (%) 4 h” value is recorded as 33.7%. Also, in data set [3], the logD is -1.52 ± 0.1.

For `CC(C)CC(CC(C)C)NC(=O)[C@H](Cc1c[nH]cn1)NC(=O)CNC(=O)[C@@H](NC(=O)[C@H](C)NC(=O)[C@H](Cc1c[nH]c2ccccc12)NC(=O)[C@H](CCC(N)=O)NC(=O)[C@@H](Cc1ccccc1)NC(=O)CCOCCOCCOCCOCCNC(=O)[C@H](CCCCNC(=O)OC1CCCC2C=NN=C(c3ccc(CNC(=O)CCCCC[N+]4=C(/C=C/C=C/C=C5N(C)c6ccc(S(=O)(=O)O)cc6C5(C)C)C(C)(C)c5cc(S(=O)(=O)[O-])ccc54)cc3)C2CC1)NC(=O)CN1CCN(CC(=O)O)CCN(CC(=O)O)CCN(CC(=O)O)CC1)C(C)C` (some centres unmarked) [Compound 15], the “Ratio Compound/NeoB (IC50)” value on GRPR was 11.2.

Regarding `CC(C)CC(CC(C)C)NC(=O)[C@H](Cc1c[nH]cn1)NC(=O)CNC(=O)[C@@H](NC(=O)[C@H](C)NC(=O)[C@H](Cc1c[nH]c2ccccc12)NC(=O)[C@H](CCC(N)=O)NC(=O)[C@@H](Cc1ccccc1)NC(=O)CCOCCOCCOCCOCCNC(=O)OC1CCCC2C=NN=C(c3ccc(CNC(=O)CCCCC[N+]4=C(/C=C/C=C/C=C5N(C)c6ccc(S(=O)(=O)O)cc6C5(C)C)C(C)(C)c5cc(S(=O)(=O)[O-])ccc54)cc3)C2CC1)C(C)C` (some centres unmarked) [Compound 11], the “Ratio Compound/NeoB (IC50)” value at GRPR came to 4.5.
